# Test results reported in patent US7119182 (University of California, dated 2006).
# Square brackets hold non-standard residues; d marks the D form. Ends that are not written are not given here. * marks the point of attachment. SMeMpr = S-methyl-3-mercaptopropionic acid, CSCCC(=O)*; Cha = N[C@@H](CC1CCCCC1)C(=O)O; Mpa = O=C(O)CCS
# T1: human thrombin receptor (human, UniProt P25116 42-425)
# T1 chain: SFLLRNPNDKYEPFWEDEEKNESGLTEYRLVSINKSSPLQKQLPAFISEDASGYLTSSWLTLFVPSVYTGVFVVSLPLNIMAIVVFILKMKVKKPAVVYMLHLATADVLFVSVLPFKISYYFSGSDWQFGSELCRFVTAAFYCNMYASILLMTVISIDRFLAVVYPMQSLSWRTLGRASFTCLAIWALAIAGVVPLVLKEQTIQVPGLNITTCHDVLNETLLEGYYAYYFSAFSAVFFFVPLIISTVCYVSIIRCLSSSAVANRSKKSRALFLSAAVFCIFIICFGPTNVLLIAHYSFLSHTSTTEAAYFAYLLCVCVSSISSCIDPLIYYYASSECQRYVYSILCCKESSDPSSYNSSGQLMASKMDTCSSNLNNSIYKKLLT
# B1: SFLLKN-NH2 (peptide)
# peptide: SFLLKN-NH2
# B2: SFLLLN-NH2 (peptide)
# peptide: SFLLLN-NH2
# B3: SF(Cha) (Cha)RK-NH2 (peptide)
# peptide: SF[Cha][Cha]RK-NH2
# modifications: N-terminus assumed
# SMILES: N=C(N)NCCC[C@H](NC(=O)[C@H](CC1CCCCC1)NC(=O)[C@H](CC1CCCCC1)NC(=O)[C@H](Cc1ccccc1)NC(=O)[C@@H](N)CO)C(=O)N[C@@H](CCCCN)C(N)=O
# B4: SFLLQN-NH2 (peptide)
# peptide: SFLLQN-NH2
# B5: SFF(Cha)RA-NH2 (peptide)
# peptide: SFF[Cha]RA-NH2
# modifications: N-terminus assumed
# SMILES: C[C@H](NC(=O)[C@H](CCCNC(=N)N)NC(=O)[C@H](CC1CCCCC1)NC(=O)[C@H](Cc1ccccc1)NC(=O)[C@H](Cc1ccccc1)NC(=O)[C@@H](N)CO)C(N)=O
# B6: Mpr-F(Cha) (Cha)RKPNDA-NH2 (peptide)
# peptide: [Mpa]F[Cha][Cha]RKPNDA-NH2
# SMILES: C[C@H](NC(=O)[C@H](CC(=O)O)NC(=O)[C@H](CC(N)=O)NC(=O)[C@@H]1CCCN1C(=O)[C@H](CCCCN)NC(=O)[C@H](CCCNC(=N)N)NC(=O)[C@H](CC1CCCCC1)NC(=O)[C@H](CC1CCCCC1)NC(=O)[C@H](Cc1ccccc1)NC(=O)CCS)C(N)=O
# B7: Mpr-F(Cha) (Cha)RGPNDK-NH2 (peptide)
# peptide: [Mpa]F[Cha][Cha]RGPNDK-NH2
# SMILES: N=C(N)NCCC[C@H](NC(=O)[C@H](CC1CCCCC1)NC(=O)[C@H](CC1CCCCC1)NC(=O)[C@H](Cc1ccccc1)NC(=O)CCS)C(=O)NCC(=O)N1CCC[C@H]1C(=O)N[C@@H](CC(N)=O)C(=O)N[C@@H](CC(=O)O)C(=O)N[C@@H](CCCCN)C(N)=O
# B8: Mpr-F(Cha) (Cha)RNPND-NH2 (peptide)
# peptide: [Mpa]F[Cha][Cha]RNPND-NH2
# SMILES: N=C(N)NCCC[C@H](NC(=O)[C@H](CC1CCCCC1)NC(=O)[C@H](CC1CCCCC1)NC(=O)[C@H](Cc1ccccc1)NC(=O)CCS)C(=O)N[C@@H](CC(N)=O)C(=O)N1CCC[C@H]1C(=O)N[C@@H](CC(N)=O)C(=O)N[C@@H](CC(=O)O)C(N)=O
# B9: Pivaloyl-FLLR-NH2 (peptide)
# peptide: Pivaloyl-FLLR-NH2
# B10: Mpr-F(Cha) (Cha)RNANDK-NH2 (peptide)
# peptide: [Mpa]F[Cha][Cha]RNANDK-NH2
# SMILES: C[C@H](NC(=O)[C@H](CC(N)=O)NC(=O)[C@H](CCCNC(=N)N)NC(=O)[C@H](CC1CCCCC1)NC(=O)[C@H](CC1CCCCC1)NC(=O)[C@H](Cc1ccccc1)NC(=O)CCS)C(=O)N[C@@H](CC(N)=O)C(=O)N[C@@H](CC(=O)O)C(=O)N[C@@H](CCCCN)C(N)=O
# B11: Mpr-F(Cha) (Cha)RNPNDA-NH2 (peptide)
# peptide: [Mpa]F[Cha][Cha]RNPNDA-NH2
# SMILES: C[C@H](NC(=O)[C@H](CC(=O)O)NC(=O)[C@H](CC(N)=O)NC(=O)[C@@H]1CCCN1C(=O)[C@H](CC(N)=O)NC(=O)[C@H](CCCNC(=N)N)NC(=O)[C@H](CC1CCCCC1)NC(=O)[C@H](CC1CCCCC1)NC(=O)[C@H](Cc1ccccc1)NC(=O)CCS)C(N)=O
# B12: Mpr-F(Cha) (Cha)RNPADK-NH2 (peptide)
# peptide: [Mpa]F[Cha][Cha]RNPADK-NH2
# SMILES: C[C@H](NC(=O)[C@@H]1CCCN1C(=O)[C@H](CC(N)=O)NC(=O)[C@H](CCCNC(=N)N)NC(=O)[C@H](CC1CCCCC1)NC(=O)[C@H](CC1CCCCC1)NC(=O)[C@H](Cc1ccccc1)NC(=O)CCS)C(=O)N[C@@H](CC(=O)O)C(=O)N[C@@H](CCCCN)C(N)=O
# B13: Mpr-F(Cha) (Cha)RFPNDK-NH2 (peptide)
# peptide: [Mpa]F[Cha][Cha]RFPNDK-NH2
# SMILES: N=C(N)NCCC[C@H](NC(=O)[C@H](CC1CCCCC1)NC(=O)[C@H](CC1CCCCC1)NC(=O)[C@H](Cc1ccccc1)NC(=O)CCS)C(=O)N[C@@H](Cc1ccccc1)C(=O)N1CCC[C@H]1C(=O)N[C@@H](CC(N)=O)C(=O)N[C@@H](CC(=O)O)C(=O)N[C@@H](CCCCN)C(N)=O
# B14: [Cam-Mpr]-FLLR-NH2 (peptide)
# peptide: {Cam‑Mpr}-FLLR-NH2
# B15: Mpr-F(Cha) (Cha)RN-NH2 (peptide)
# peptide: [Mpa]F[Cha][Cha]RN-NH2
# SMILES: N=C(N)NCCC[C@H](NC(=O)[C@H](CC1CCCCC1)NC(=O)[C@H](CC1CCCCC1)NC(=O)[C@H](Cc1ccccc1)NC(=O)CCS)C(=O)N[C@@H](CC(N)=O)C(N)=O
# B16: Mpr-F(Cha) (Cha)RNPNAK-NH2 (peptide)
# peptide: [Mpa]F[Cha][Cha]RNPNAK-NH2
# SMILES: C[C@H](NC(=O)[C@H](CC(N)=O)NC(=O)[C@@H]1CCCN1C(=O)[C@H](CC(N)=O)NC(=O)[C@H](CCCNC(=N)N)NC(=O)[C@H](CC1CCCCC1)NC(=O)[C@H](CC1CCCCC1)NC(=O)[C@H](Cc1ccccc1)NC(=O)CCS)C(=O)N[C@@H](CCCCN)C(N)=O
# B17: Mpr-F(Cha) (Cha)RNPNDK-NH2 (peptide)
# peptide: [Mpa]F[Cha][Cha]RNPNDK-NH2
# SMILES: N=C(N)NCCC[C@H](NC(=O)[C@H](CC1CCCCC1)NC(=O)[C@H](CC1CCCCC1)NC(=O)[C@H](Cc1ccccc1)NC(=O)CCS)C(=O)N[C@@H](CC(N)=O)C(=O)N1CCC[C@H]1C(=O)N[C@@H](CC(N)=O)C(=O)N[C@@H](CC(=O)O)C(=O)N[C@@H](CCCCN)C(N)=O
# B18: Mpr-F(Cha) (Cha)RKPNDK-NH2 (peptide)
# peptide: [Mpa]F[Cha][Cha]RKPNDK-NH2
# B19: Mpr-F(Cha) (Cha)RNPNDKYE-NH2 (peptide)
# peptide: [Mpa]F[Cha][Cha]RNPNDKYE-NH2
# SMILES: N=C(N)NCCC[C@H](NC(=O)[C@H](CC1CCCCC1)NC(=O)[C@H](CC1CCCCC1)NC(=O)[C@H](Cc1ccccc1)NC(=O)CCS)C(=O)N[C@@H](CC(N)=O)C(=O)N1CCC[C@H]1C(=O)N[C@@H](CC(N)=O)C(=O)N[C@@H](CC(=O)O)C(=O)N[C@@H](CCCCN)C(=O)N[C@@H](Cc1ccc(O)cc1)C(=O)N[C@@H](CCC(=O)O)C(N)=O
# B20: Mpr-F(Cha) (Cha)RNPNDKY (peptide)
# peptide: [Mpa]F[Cha][Cha]RNPNDKY
# B21: Mpr-F(Cha) (Cha)RAPNDK-NH2 (peptide)
# peptide: [Mpa]F[Cha][Cha]RAPNDK-NH2
# SMILES: C[C@H](NC(=O)[C@H](CCCNC(=N)N)NC(=O)[C@H](CC1CCCCC1)NC(=O)[C@H](CC1CCCCC1)NC(=O)[C@H](Cc1ccccc1)NC(=O)CCS)C(=O)N1CCC[C@H]1C(=O)N[C@@H](CC(N)=O)C(=O)N[C@@H](CC(=O)O)C(=O)N[C@@H](CCCCN)C(N)=O
# B22: Mpr-F(Cha) (Cha)RNPNDK (peptide)
# peptide: [Mpa]F[Cha][Cha]RNPNDK-OH
# SMILES: N=C(N)NCCC[C@H](NC(=O)[C@H](CC1CCCCC1)NC(=O)[C@H](CC1CCCCC1)NC(=O)[C@H](Cc1ccccc1)NC(=O)CCS)C(=O)N[C@@H](CC(N)=O)C(=O)N1CCC[C@H]1C(=O)N[C@@H](CC(N)=O)C(=O)N[C@@H](CC(=O)O)C(=O)N[C@@H](CCCCN)C(=O)O
# B23: Mpr-FLLRNPNC-NH2 (peptide)
# peptide: [Mpa]FLLRNPNC-NH2
# modifications: cysteine pairing not given here
# B24: Mpr-P(Cha) (Cha)RKPNEK-NH2 (peptide)
# peptide: [Mpa]F[Cha][Cha]RKPNEK-NH2
# B25: (SMeMpr)-F(Cha)(Cha)RKPNDK-NH2 (peptide)
# peptide: SMeMpr-F[Cha][Cha]RKPNDK-NH2
# SMILES: CSCCC(=O)N[C@@H](Cc1ccccc1)C(=O)N[C@@H](CC1CCCCC1)C(=O)N[C@@H](CC1CCCCC1)C(=O)N[C@@H](CCCNC(=N)N)C(=O)N[C@@H](CCCCN)C(=O)N1CCC[C@H]1C(=O)N[C@@H](CC(N)=O)C(=O)N[C@@H](CC(=O)O)C(=O)N[C@@H](CCCCN)C(N)=O
# B26: Mpr-F(Cha) (Cha)RNPNDKY-NH2 (peptide)
# peptide: [Mpa]F[Cha][Cha]RNPNDKY-NH2
# SMILES: N=C(N)NCCC[C@H](NC(=O)[C@H](CC1CCCCC1)NC(=O)[C@H](CC1CCCCC1)NC(=O)[C@H](Cc1ccccc1)NC(=O)CCS)C(=O)N[C@@H](CC(N)=O)C(=O)N1CCC[C@H]1C(=O)N[C@@H](CC(N)=O)C(=O)N[C@@H](CC(=O)O)C(=O)N[C@@H](CCCCN)C(=O)N[C@@H](Cc1ccc(O)cc1)C(N)=O
# Target: T1, human thrombin receptor
# Experiment: cell-based or functional assay
row,Binder,"EC50 (concentration required to elicit a 50% maximal aggregation), platelet aggregation [µM]"
1,B1,11.1
2,B2,44.9
3,B3,0.82
4,B4,20.2
5,B5,1.4

# Target: T1, human thrombin receptor
# Experiment: cell-based or functional assay
# Remark: another data set of the same source
row,Binder,IC50 (50% inhibition of thrombin-induced platelet activation or aggregation) [µM]
1,B6,50
2,B7,20
3,B8,50
4,B9,1000
5,B10,75
6,B11,50
7,B12,75
8,B13,> 100
9,B14,1000
10,B15,100
11,B16,> 100
12,B17,25
13,B18,5
14,B19,80
15,B20,40
16,B21,40
17,B22,30
18,B23,400
19,B24,10
20,B25,10
21,B26,75
